Source: patent publication US20250388664A1 (BIOARCTIC, published 2025)

B1: h26D3 variant LC3 Fab (Fab, V domains shown)
VH: EVQLVQSGAEVKKPGSSVKVSCKASGYIFTDYNMDWVRQAPGQGLEWIGDINPDYDTTSYNEKFKGRATLTVDKSTSTAYMELSSLRSEDTAVYYCARGGYSGSSYYHPMDYWGQGTLVTVSS
VL: DIQMTQSPSSVSASVGDRVTITCKSSQSLLYSTNQKNYLAWYQQKPGKAPKLLIAWASTRESGVPSRFSGSGSGTDFTLTISSLQPEDFATYYCQQYFIYPRTFGQGTKVEIK
notes: Single-mutant His-tagged Fab; also called Y55A
B2: h26D3 variant LC4 Fab (Fab, V domains shown)
VH: EVQLVQSGAEVKKPGSSVKVSCKASGYIFTDYNMDWVRQAPGQGLEWIGDINPDYDTTSYNEKFKGRATLTVDKSTSTAYMELSSLRSEDTAVYYCARGGYSGSSYYHPMDYWGQGTLVTVSS
VL: DIQMTQSPSSVSASVGDRVTITCKSSQSLLYSTNQKNYLAWYQQKPGKAPKLLIYAASTRESGVPSRFSGSGSGTDFTLTISSLQPEDFATYYCQQYFIYPRTFGQGTKVEIK
notes: Single-mutant His-tagged Fab; also called W56A
B3: h26D3-LC1_DS, VL-first (scFv)
scFv: DIQMTQSPSSVSASVGDRVTITCKSSQSLLASTNQKNYLAWYQQKPGKAPKLLIYWASTRESGVPSRFSGSGSGTDFTLTISSLQPEDFATYYCQQYFIYPRTFGCGTKVEIKGGGGSGGGGSGGGGSGGGGSEVQLVQSGAEVKKPGSSVKVSCKASGYIFTDYNMDWVRQAPGQCLEWIGDINPDYDTTSYNEKFKGRATLTVDKSTSTAYMELSSLRSEDTAVYYCARGGYSGSSYYHPMDYWGQGTLVTVSS
B4: h26D3-HC6 (scFv)
scFv: EVQLVQSGAEVKKPGSSVKVSCKASGYIFTDYNMDWVRQAPGQGLEWIGDINPDADTTSYNEKFKGRATLTVDKSTSTAYMELSSLRSEDTAVYYCARGGYSGSSYYHPMDYWGQGTLVTVSSGGGGSGGGGSGGGGSDIQMTQSPSSVSASVGDRVTITCKSSQSLLYSTNQKNYLAWYQQKPGKAPKLLIYWASTRESGVPSRFSGSGSGTDFTLTISSLQPEDFATYYCQQYFIYPRTFGQGTKVEIK
notes: also called scFv h26D3-HC6
B5: h26D3-HC6_DS (scFv)
scFv: EVQLVQSGAEVKKPGSSVKVSCKASGYIFTDYNMDWVRQAPGQCLEWIGDINPDADTTSYNEKFKGRATLTVDKSTSTAYMELSSLRSEDTAVYYCARGGYSGSSYYHPMDYWGQGTLVTVSSGGGGSGGGGSGGGGSDIQMTQSPSSVSASVGDRVTITCKSSQSLLYSTNQKNYLAWYQQKPGKAPKLLIYWASTRESGVPSRFSGSGSGTDFTLTISSLQPEDFATYYCQQYFIYPRTFGCGTKVEIK
B6: h26D3-LC1 (scFv)
scFv: EVQLVQSGAEVKKPGSSVKVSCKASGYIFTDYNMDWVRQAPGQGLEWIGDINPDYDTTSYNEKFKGRATLTVDKSTSTAYMELSSLRSEDTAVYYCARGGYSGSSYYHPMDYWGQGTLVTVSSGGGGSGGGGSGGGGSDIQMTQSPSSVSASVGDRVTITCKSSQSLLASTNQKNYLAWYQQKPGKAPKLLIYWASTRESGVPSRFSGSGSGTDFTLTISSLQPEDFATYYCQQYFIYPRTFGQGTKVEIK
B7: h26D3-HC6, VL-first (scFv)
scFv: DIQMTQSPSSVSASVGDRVTITCKSSQSLLYSTNQKNYLAWYQQKPGKAPKLLIYWASTRESGVPSRFSGSGSGTDFTLTISSLQPEDFATYYCQQYFIYPRTFGQGTKVEIKGGGGSGGGGSGGGGSEVQLVQSGAEVKKPGSSVKVSCKASGYIFTDYNMDWVRQAPGQGLEWIGDINPDADTTSYNEKFKGRATLTVDKSTSTAYMELSSLRSEDTAVYYCARGGYSGSSYYHPMDYWGQGTLVTVSS
B8: H2L7-K12V/R71A/R83T (antibody, human IgG1, kappa)
heavy: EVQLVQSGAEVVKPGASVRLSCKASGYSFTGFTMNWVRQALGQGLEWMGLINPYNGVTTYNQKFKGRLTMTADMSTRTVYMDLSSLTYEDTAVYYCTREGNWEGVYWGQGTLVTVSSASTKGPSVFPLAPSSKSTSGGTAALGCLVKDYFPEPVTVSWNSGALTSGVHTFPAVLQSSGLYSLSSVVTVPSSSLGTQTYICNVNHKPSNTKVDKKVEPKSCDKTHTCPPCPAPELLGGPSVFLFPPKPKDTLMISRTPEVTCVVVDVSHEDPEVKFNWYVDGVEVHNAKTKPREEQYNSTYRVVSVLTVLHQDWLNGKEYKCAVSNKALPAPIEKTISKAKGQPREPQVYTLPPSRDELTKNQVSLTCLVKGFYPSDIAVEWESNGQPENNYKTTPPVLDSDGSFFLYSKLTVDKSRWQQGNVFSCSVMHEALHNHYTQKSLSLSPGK
light: EIVLTQSPLSLSVTLGQSASISCRSSQSLLDSNGKTYLHWFILRPGQSPRRLIYLVSILDSGVPDRFSGSGSGTDFTLKISRVEAEDVGVYYCVQGTHFPFTFGSGTKLEIKRTVAAPSVFIFPPSDEQLKSGTASVVCLLNNFYPREAKVQWKVDNALQSGNSQESVTEQDSKDSTYSLSSTLTLSKADYEKHKVYACEVTHQGLSSPVTKSFNRGEC
notes: VH variant of H2L7; VL and constant domains identical to H2L7
B9: H2L7-R71A (antibody, human IgG1, kappa)
heavy: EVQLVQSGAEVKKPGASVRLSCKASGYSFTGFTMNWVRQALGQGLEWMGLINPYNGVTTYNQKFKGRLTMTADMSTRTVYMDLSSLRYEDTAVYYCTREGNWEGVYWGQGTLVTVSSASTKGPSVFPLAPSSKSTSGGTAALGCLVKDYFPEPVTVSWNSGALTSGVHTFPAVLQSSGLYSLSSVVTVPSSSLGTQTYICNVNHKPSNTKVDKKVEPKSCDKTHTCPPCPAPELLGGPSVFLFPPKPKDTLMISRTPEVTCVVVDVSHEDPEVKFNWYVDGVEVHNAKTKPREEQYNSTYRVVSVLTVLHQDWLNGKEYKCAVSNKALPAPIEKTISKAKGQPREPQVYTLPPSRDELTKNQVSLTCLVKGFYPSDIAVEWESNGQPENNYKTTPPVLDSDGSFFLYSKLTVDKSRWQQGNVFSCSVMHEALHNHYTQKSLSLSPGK
light: EIVLTQSPLSLSVTLGQSASISCRSSQSLLDSNGKTYLHWFILRPGQSPRRLIYLVSILDSGVPDRFSGSGSGTDFTLKISRVEAEDVGVYYCVQGTHFPFTFGSGTKLEIKRTVAAPSVFIFPPSDEQLKSGTASVVCLLNNFYPREAKVQWKVDNALQSGNSQESVTEQDSKDSTYSLSSTLTLSKADYEKHKVYACEVTHQGLSSPVTKSFNRGEC
notes: as for B8
B10: H2L7-R71A/R83T (antibody, human IgG1, kappa)
heavy: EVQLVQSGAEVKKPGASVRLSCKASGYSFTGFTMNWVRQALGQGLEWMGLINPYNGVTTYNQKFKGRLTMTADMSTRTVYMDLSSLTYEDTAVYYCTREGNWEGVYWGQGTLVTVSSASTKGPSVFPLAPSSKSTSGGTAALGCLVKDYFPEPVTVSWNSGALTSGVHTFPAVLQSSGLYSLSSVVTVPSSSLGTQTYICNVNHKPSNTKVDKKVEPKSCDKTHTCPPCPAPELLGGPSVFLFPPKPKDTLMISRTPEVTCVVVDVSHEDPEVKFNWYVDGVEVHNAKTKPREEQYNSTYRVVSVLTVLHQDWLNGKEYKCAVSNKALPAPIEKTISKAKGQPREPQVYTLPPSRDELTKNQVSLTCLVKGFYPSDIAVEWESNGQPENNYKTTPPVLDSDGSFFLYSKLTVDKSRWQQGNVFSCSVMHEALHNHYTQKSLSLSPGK
light: EIVLTQSPLSLSVTLGQSASISCRSSQSLLDSNGKTYLHWFILRPGQSPRRLIYLVSILDSGVPDRFSGSGSGTDFTLKISRVEAEDVGVYYCVQGTHFPFTFGSGTKLEIKRTVAAPSVFIFPPSDEQLKSGTASVVCLLNNFYPREAKVQWKVDNALQSGNSQESVTEQDSKDSTYSLSSTLTLSKADYEKHKVYACEVTHQGLSSPVTKSFNRGEC
notes: as for B8

How the values were obtained:
[1] = biological target: T1, ectodomain of human TfR1 (His10-hTfR1; SEQ ID NO:110) (human, UniProt P02786 89-760); assay: BLI: His-tagged Fab loaded from cell supernatant on anti-Fab sensors, hTfR1 ectodomain at 3.75 µg/ml in solution, 300 s association, 300 s dissociation
T1 construct: also called ectodomain of hTfR1
Description: The generated alanine variants were expressed as single mutant, His-tagged Fabs by transient transfection of Chinese hamster ovary cells (ExpiCHO; Thermo Fisher Scientific) according to the manufacturer's instructions. Clarified media, into which the Fabs had been secreted, was used to assess binding to hTfR1 by BLI (Octet RED384, ForteBio). The expressed Fabs were loaded from the cell supernatants onto anti-Fab biosensors during 240 s. Thereafter, association of ectodomain of hTfR1 (SEQ ID NO:110), diluted to 3.75 μg/ml in 1× Kinetics buffer (ForteBio), to the loaded sensors was measured for 300 s, followed by dissociation for 300 s.

[2] = biological target: T2, hTfR1 (recombinant, construct not specified) (human, UniProt P02786 89-760, limits assumed); assay: SPR (Biacore 8K), single-cycle kinetics, hTfR1 captured through its N-terminal DYKDDDDK tag, scFv injected in 5 steps (3-fold, from 700 or 400 nM)
T2 construct: also called biotinylated hTfR1
Description: Binding to hTfR1 of six different purified scFv variants from Example 24 was evaluated by surface plasmon resonance (SPR) using Biacore 8K (Cytiva). 30 μg/ml of […] Tag mAb FG4R (Thermo Fisher Scientific, MA1-91878) in 10 mM acetate buffer, pH 4.5 was immobilized on a CM5 sensor chip (Cytiva, #BR100399) using the amine coupling kit type 2 (Cytiva, #BR100633) according to the manufacturer's instruction, resulting in immobilization levels of approximately 10000 RU. hTfR1 was captured via an N-terminal […] tag. To this end, the receptor was injected over the chip with a contact time of 60 s at a flow rate of 10 μl/min. […] Interaction was measured using the single cycle kinetics method with a contact time of 120 s at a flow rate of 30 μl/min followed by a dissociation time of 600 s. Regeneration of the surface between cycles was done by injecting 10 mM glycine-HCl pH 1.7 with a contact time of 30 s and a flow rate of 30 μl/min. The binding modules were diluted in HBS-EP+ (Cytiva, #BR100669). Experiments were performed at 25° C.

AβpE3-40 monomer [3] = biological target: T3, AβpE3-40 monomer (UniProt P05067 674-711, pyroglutamate at position 3 (N-terminal residue)); assay: SPR, antibody immobilised, monomer injected, 1:1 fit
T3 construct: range 3-40 (Aβ numbering); Synthetic peptide (Bachem/Anaspec), verified monomeric by SEC; also called monomeric AβpE3-40
Description: Single cycle kinetics with the antibodies immobilized on a CM5 chip was used to measure the binding of the antibodies to the AβpE3-40 monomer. For the measurements, 5 μg/ml of analyte antibody was immobilized on the chip. […] Regeneration of the surface between cycles was done by injecting 30 μl 3 M MgCl₂. The binding data was fitted to a 1:1 interaction model.
(§1) In all SPR experiments, 1×HBS-EP+ (Cytiva, cat. no. BR100669) was used to dilute antibodies and target antigens. Experiments were performed at 25° C.
(§2) Affinity evaluation and KD determination by surface plasmon resonance: Binding interactions between antigens and antibodies were evaluated by SPR using a Biacore 8K instrument (Cytiva) according to standard procedures.

AβpE3-42 protofibrils [4] = biological target: T4, AβpE3-42 protofibrils (UniProt P05067 674-713, pyroglutamate at position 3 (N-terminal residue)); assay: inhibition ELISA, antigen titrated in solution, AβpE3-40 coat
T4 construct: range 3-42 (Aβ numbering); Soluble aggregates made from AβpE3-42 peptide, purified in the void peak of SEC; also called AβpE3-42 PF

Aβ1-42 protofibrils = biological target: T5, Aβ1-42 protofibrils (UniProt P05067 672-713); assay: as above
T5 construct: range 1-42 (Aβ numbering); Soluble aggregates made from Aβ1-42 monomer

AβpE3-40 monomer [5] = biological target: T3, AβpE3-40 monomer; assay: as above
Aβ1-40 monomer = biological target: T6, Aβ1-40 monomer (UniProt P05067 672-711); assay: as above
T6 construct: range 1-40 (Aβ numbering)

AβpE3-42 protofibrils [6] = biological target: T4, AβpE3-42 protofibrils; assay: SPR, protofibrils immobilised, antibody injected, 1:1 fit, apparent; binding to AβpE3-42 protofibrils; KD in pM
Description: (§3) Single cycle kinetics was also used to measure binding of the antibodies to AβpE3-42 protofibrils. […] Regeneration of the surface between cycles was done by injecting 30 μl 10 mM glycine-HCl pH 1.7. The binding data was fitted to a 1:1 interaction model.
as §1, §2

AβpE3-42 protofibrils [7] = biological target: T4, AβpE3-42 protofibrils; assay: SPR, protofibrils immobilised, antibody injected, 1:1 fit, apparent
Description: as §3, §1, §2

T2 sequence (P02786 89-760 limits assumed): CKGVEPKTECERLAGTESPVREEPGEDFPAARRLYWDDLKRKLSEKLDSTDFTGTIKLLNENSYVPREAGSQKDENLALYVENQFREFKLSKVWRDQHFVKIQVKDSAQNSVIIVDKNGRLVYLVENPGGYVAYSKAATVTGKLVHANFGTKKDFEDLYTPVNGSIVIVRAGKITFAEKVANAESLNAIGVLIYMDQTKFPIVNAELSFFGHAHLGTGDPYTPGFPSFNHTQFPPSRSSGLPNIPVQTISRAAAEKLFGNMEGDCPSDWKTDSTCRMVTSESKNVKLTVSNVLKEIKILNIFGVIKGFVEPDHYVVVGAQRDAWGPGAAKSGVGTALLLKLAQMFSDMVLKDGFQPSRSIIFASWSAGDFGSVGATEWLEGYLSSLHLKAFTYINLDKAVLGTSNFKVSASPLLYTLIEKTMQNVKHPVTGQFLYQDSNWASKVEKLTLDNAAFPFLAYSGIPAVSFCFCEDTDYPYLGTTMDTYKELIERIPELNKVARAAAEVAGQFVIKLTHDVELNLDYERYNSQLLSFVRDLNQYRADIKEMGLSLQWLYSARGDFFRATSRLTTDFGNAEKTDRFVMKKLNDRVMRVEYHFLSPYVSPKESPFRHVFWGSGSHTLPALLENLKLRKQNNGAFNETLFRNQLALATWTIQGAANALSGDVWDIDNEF
T3 sequence (P05067 674-711): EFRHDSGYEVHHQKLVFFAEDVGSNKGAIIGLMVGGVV
T4 sequence (P05067 674-713): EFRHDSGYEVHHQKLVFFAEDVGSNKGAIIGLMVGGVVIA
T6 sequence (P05067 672-711): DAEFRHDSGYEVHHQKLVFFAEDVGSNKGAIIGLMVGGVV
T5 sequence (P05067 672-713): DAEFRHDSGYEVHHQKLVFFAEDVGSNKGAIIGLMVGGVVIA
T1 sequence (P02786 other isoform, or with tags, fused parts or gaps): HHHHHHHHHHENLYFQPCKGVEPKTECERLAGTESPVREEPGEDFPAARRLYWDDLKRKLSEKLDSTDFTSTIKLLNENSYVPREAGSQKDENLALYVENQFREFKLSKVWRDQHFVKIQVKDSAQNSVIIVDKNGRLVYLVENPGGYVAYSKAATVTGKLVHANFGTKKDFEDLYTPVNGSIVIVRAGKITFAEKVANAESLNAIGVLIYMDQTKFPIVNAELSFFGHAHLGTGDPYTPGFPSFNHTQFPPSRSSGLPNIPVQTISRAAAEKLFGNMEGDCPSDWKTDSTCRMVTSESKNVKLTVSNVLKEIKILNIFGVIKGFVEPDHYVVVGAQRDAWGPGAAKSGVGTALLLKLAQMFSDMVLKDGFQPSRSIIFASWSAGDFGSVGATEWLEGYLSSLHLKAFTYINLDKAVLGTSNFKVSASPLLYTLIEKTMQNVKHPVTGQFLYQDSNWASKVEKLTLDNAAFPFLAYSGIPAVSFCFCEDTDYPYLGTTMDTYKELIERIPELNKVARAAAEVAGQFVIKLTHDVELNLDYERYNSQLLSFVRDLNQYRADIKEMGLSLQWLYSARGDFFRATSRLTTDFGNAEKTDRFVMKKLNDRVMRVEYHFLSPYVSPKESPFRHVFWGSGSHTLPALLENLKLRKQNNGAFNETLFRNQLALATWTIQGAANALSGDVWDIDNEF

Row | Binder | binding result [2] | Kd (AβpE3-40 monomer [3]) | koff (AβpE3-40 monomer [3]) | kon (AβpE3-40 monomer [3]) | IC50 (AβpE3-42 protofibrils [4]) | IC50 (Aβ1-42 protofibrils) | IC50 (AβpE3-40 monomer [5]) | IC50 (Aβ1-40 monomer) | Kd (AβpE3-42 protofibrils [6]) | koff (AβpE3-42 protofibrils [7]) | kon (AβpE3-42 protofibrils [7]) | also measured
1 | B1 | – | – | – | – | – | – | – | – | – | – | – | binding result [1]: binds
2 | B2 | – | – | – | – | – | – | – | – | – | – | – | binding result [1]: binds
3 | B3 | binds | – | – | – | – | – | – | – | – | – | – | –
4 | B4 | binds | – | – | – | – | – | – | – | – | – | – | –
5 | B5 | binds | – | – | – | – | – | – | – | – | – | – | –
6 | B6 | binds | – | – | – | – | – | – | – | – | – | – | –
7 | B7 | binds | – | – | – | – | – | – | – | – | – | – | –
8 | B8 | – | 4.04 nM | 0.000234 s⁻¹ | 58700 M⁻¹ s⁻¹ | 4.9 nM | > 132 nM | 2.29 nM | > 500 nM | 0.427 nM | 2.45e-05 s⁻¹ | 57600 M⁻¹ s⁻¹ | –
9 | B9 | – | 4.62 nM | 0.000225 s⁻¹ | 50100 M⁻¹ s⁻¹ | 4.59 nM | > 132 nM | 2.54 nM | > 500 nM | 0.376 nM | 2.54e-05 s⁻¹ | 67700 M⁻¹ s⁻¹ | –
10 | B10 | – | 4.72 nM | 0.000235 s⁻¹ | 50900 M⁻¹ s⁻¹ | 5.44 nM | > 132 nM | 2.77 nM | > 500 nM | 0.471 nM | 2.73e-05 s⁻¹ | 57400 M⁻¹ s⁻¹ | –
